Source: patent publication US20150306181A1 (BOARD OF REGENTS OF THE UNIVERSITY OF NEBRASKA, published 2015)
Values belong to the binder of their own block, whether it stands above or below them.

Key:
[1] = target: T1, mouse leptin receptor-Fc chimera (mouse; human, UniProt P48356 22-839); experiment: SPR, ObR-Fc captured on protein G chip, 1:1 model; leptin in 1:1 mixture with free Pluronic P85
T1 construct: extracellular domain; Bought from R&D Systems; Captured on a protein G sensor chip through its Fc; also called ObR-Fc; chimera leptin receptor; not shown: human Fc fragment, printed as 'human protein G Fc fragment'
T1 sequence (looked up): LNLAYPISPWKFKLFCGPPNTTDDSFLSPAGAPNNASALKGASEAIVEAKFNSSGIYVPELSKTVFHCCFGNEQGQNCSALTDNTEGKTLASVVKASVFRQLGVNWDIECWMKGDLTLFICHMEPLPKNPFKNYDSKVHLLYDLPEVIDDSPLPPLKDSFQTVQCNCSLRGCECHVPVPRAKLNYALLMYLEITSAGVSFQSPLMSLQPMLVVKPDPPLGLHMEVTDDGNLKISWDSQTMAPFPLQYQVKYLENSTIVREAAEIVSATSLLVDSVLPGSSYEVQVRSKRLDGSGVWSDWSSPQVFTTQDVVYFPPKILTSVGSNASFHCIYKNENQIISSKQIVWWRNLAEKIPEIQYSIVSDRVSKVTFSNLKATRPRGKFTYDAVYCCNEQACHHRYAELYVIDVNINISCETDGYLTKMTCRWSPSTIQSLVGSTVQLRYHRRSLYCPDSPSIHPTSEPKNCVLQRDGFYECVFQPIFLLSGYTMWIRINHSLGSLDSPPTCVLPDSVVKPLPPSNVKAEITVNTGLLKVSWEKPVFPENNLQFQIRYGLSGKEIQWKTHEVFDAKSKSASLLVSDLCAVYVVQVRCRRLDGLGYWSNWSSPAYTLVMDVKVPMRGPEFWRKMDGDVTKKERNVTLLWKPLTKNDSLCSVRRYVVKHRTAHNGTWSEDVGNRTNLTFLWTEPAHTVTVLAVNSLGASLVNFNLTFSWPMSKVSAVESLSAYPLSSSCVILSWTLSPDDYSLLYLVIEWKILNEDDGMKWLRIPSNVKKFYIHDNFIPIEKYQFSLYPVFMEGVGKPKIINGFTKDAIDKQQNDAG
Method: (§1) The binding affinity of leptin and its analogs was measured by surface plasma resonance (SPR) in Biacore® 3000 instrument (GE Healthcare, Piscataway, N.J.), using a method reported for leptin (Mistrik et al. (2004) Anal. Biochem., 327:271-7). Carboxymethyl dextran chip (CMS), N-hydroxysuccinimide (NHS), 1-ethyl-3-(3-dimethylaminopropyl) carbodiimide (EDC), ethanolamine-HCl, HBS-EP buffer (10 mM HEPES, 150 mM NaCl, 3 mM EDTA, 0.005% surfactant P20, pH 7.4) and protein G were all purchased from GE Healthcare. […] CMS surface response was recorded by first, immobilization of ObR-Fc (0.5 μg/mL, 15 μL in HBS-EP, 5 μL/min flow rate) in channel A following 1800 s washing (to capture 100-300 RU of ObR-Fc); second, capture of leptin or leptin-Pluronic® conjugates (0-300 nM, 100 μL in HBS-EP, flow rate 20 μL/min) and dissociation (900 s) in channel A (ObR-Fc surface) and B (protein G surface); third, regeneration of a fully active protein G surface by 5 μL glycine (10 mM, pH 2.0). […]
(§2) TABLE 3 Kinetic constants for leptin and leptin-P85 conjugates and leptin receptor interaction. The association and dissociation rate constants kₐ and kd were determined as global fitting parameters for a 1:1 binding model. […] The equilibrium dissociation constant KD was determined as kd/kₐ. […]

[2] = target: T1, mouse leptin receptor-Fc chimera; experiment: SPR (Biacore 3000), ObR-Fc captured on protein G chip, 1:1 model, KD = kd/ka
Method: as §1, §2

[3] = target: T1, mouse leptin receptor-Fc chimera; experiment: SPR (Biacore 3000), ObR-Fc captured on protein G chip, 1:1 model
Method: The binding affinity of leptin and its analogs was measured by surface plasma resonance (SPR) in Biacore® 3000 instrument (GE Healthcare, Piscataway, N.J.), using a method reported for leptin (Mistrik et al. (2004) Anal. Biochem., 327:271-7). Carboxymethyl dextran chip (CMS), N-hydroxysuccinimide (NHS), 1-ethyl-3-(3-dimethylaminopropyl) carbodiimide (EDC), ethanolamine-HCl, HBS-EP buffer (10 mM HEPES, 150 mM NaCl, 3 mM EDTA, 0.005% surfactant P20, pH 7.4) and protein G were all purchased from GE Healthcare. To prepare the sensor chip, protein G was immobilized on CMS (Channel A and B) by consequent injection of 1) 115 μL NHS/EDC (1:1, v/v) (to activate dextran surface); 2) 60 μL protein G (200 μg/mL, 10 mM sodium acetate buffer, pH 4.0) (to bound the surface at 2000-3000 resonance units (RU)), and 3) 75 μl of 1 M ethanolamine hydrochloride, pH 8.5 (to deactivate NHS-ester and remove electrostatically bound protein). CMS surface response was recorded by first, immobilization of ObR-Fc (0.5 μg/mL, 15 μL in HBS-EP, 5 μL/min flow rate) in channel A following 1800 s washing (to capture 100-300 RU of ObR-Fc); second, capture of leptin or leptin-Pluronic® conjugates (0-300 nM, 100 μL in HBS-EP, flow rate 20 μL/min) and dissociation (900 s) in channel A (ObR-Fc surface) and B (protein G surface); third, regeneration of a fully active protein G surface by 5 μL glycine (10 mM, pH 2.0). The data (sensorgrams in channel A) were corrected by non-specific protein G surface binding (sensorgrams in channel B) and baseline draft (sensorgrams of HBS-EP injection in channel A) which might occur due to a slow dissociation of between ObR-Fc and protein G and then fitted to a 1:1 binding model using BIA evaluation software.
TABLE 3 Kinetic constants for leptin and leptin-P85 conjugates and leptin receptor interaction. The association and dissociation rate constants kₐ and kd were determined as global fitting parameters for a 1:1 binding model. The kinetics of the interaction with leptin, the mixture of leptin and P85, Lep-(ss)-P85(1) and its reduced form, Lep-(ss)-P85(2.1) and its reduced form, Lep-(nc)-P85(2) and purified Lep-(ss)-P85(2.3) from HIC, 33 min were analyzed. The equilibrium dissociation constant KD was determined as kd/kₐ. Numbers represent averaged values from three independent measurements on the same ObR-Fc surface.

[4] = target: T1, mouse leptin receptor-Fc chimera; experiment: SPR, ObR-Fc captured on protein G CM5 chip, 1:1 model (Example 3)
Method: […] Binding affinity of leptin or leptin-POx with leptin receptor was determined by surface plasma resonance (SPR). Protein G was immobilized on CM5 sensor chip using following procedure: 1) inject 115 μL NHS/EDC mixed solution (1:1, v/v) to activate dextran surface; 2) inject 60 μL protein G (200 μg/mL in 10 mM sodium acetate buffer, pH 4.0) to bind with the activated sensor surface; 3) inject 75 μL of 1 M ethanolamine hydrochloride, pH 8.5 to deactivate NHS-ester and remove non-specifically bound protein. […] The sensorgram in channel A was corrected by non-specific surface binding (sensorgram in channel B) and baseline draft (sensorgram of HBS-EP buffer injection in channel A) and then fitted with a 1:1 binding model as provided by BIA evaluation software. The rate constant kₐ and kd, and equilibrium association constant (KA) and dissociation constant (KD) are determined.

[5] = target: T1, mouse leptin receptor-Fc chimera; experiment: SPR, ObR-Fc captured on protein G chip; leptin in 1:1 mixture with free Pluronic P85
Excerpt: Next, the binding of the leptin-Pluronic® conjugates with the chimera leptin receptor (ObR-Fc) was studied. ObR-Fc contains the human […] Fc fragment and the mouse ObR N-terminus that shares the same sequence as the extracellular domains of the putative leptin transporter at the BBB (ObRa) and the leptin receptor (ObRb) expressed in the brain. The Fc fragment of ObR-Fc was used to reversibly bind to protein G that was pre-immobilized onto the sensor chip. The ObR N-terminus of ObR-Fc adsorbed onto the sensor chip was used for sample detection. The SPR association and dissociation profiles were recorded for native leptin, a mixture of leptin and P85, Lep-(ss)-P85(1), Lep-(ss)-P85(2.1), Lep-(ss)-P85(2.3) (fractions purified by HIC and collected at 33 min) and Lep-(nc)-P85(2) (FIG. 8 and Table 3). […] The KD values for the N-terminal modified Lep-(nc)-P85(2), which also had low modification degree, were similar to those observed for Lep-(ss)-P85(2.1) without HIC purification.

[6] = target: T1, mouse leptin receptor-Fc chimera; experiment: SPR, ObR-Fc captured on protein G chip, 1:1 model; leptin in 1:1 mixture with free Pluronic P85; leptin mixed with free P85
Method: as §1, §2

- Kd [3]: 57.1 nM
- koff [3]: 0.000642 s⁻¹
- kon [3]: 12000 M⁻¹ s⁻¹
B3: Lep-(ss)-P85(1) (ligand, mouse, UniProt P41160 22-167, looked up)
chain: VPIQKVQDDTKTLIKTIVTRINDISHTQSVSAKQRVTGLDFIPGLHPILSLSKMDQTLAVYQQVLTSLPSQNVLQIANDLENLRDLLHLLAFSKSCSLPQTSGLQKPESLDGVLEASLYSTEVVALSRLQGSLQDILQQLDVSPEC
modifications: Pluronic P85 chains on lysine amino groups through the DSP (disulfide) linker; highly modified; positions not determined
notes: Mixture of unmodified leptin and leptin with 1 to several P85 chains

- Kd [3]: 3.8 nM
- koff [3]: 0.000247 s⁻¹
- kon [3]: 77000 M⁻¹ s⁻¹
B4: Lep-(nc)-P85(2) (ligand, mouse, UniProt P41160 22-167, looked up)
chain: B3 chain
modifications: one Pluronic P85 chain on the N-terminal alpha amino group by reductive amination with mono-aldehyde-P85
notes: the rest is unmodified leptin; also called N-terminal modified Lep-(nc)-P85(2)

- Ka [4]: 1.8e+07 M⁻¹
- Kd [4]: 56 nM
- koff [4]: 0.00073 s⁻¹
- kon [4]: 13000 M⁻¹ s⁻¹
B6: Leptin-POx conjugate (ligand, UniProt P41160 22-167, looked up)
chain: B3 chain
modifications: P(MeOx50-b-BuOx20) poly(2-oxazoline) chains on amino groups through the DSP linker; modification degree 6.0 per leptin monomer by TNBS assay
notes: SEC-purified mixture of forms with different numbers of POx chains, with some unmodified monomer and dimer; also called leptin-P(MeOx-b-BuOx); leptipox

- Kd [3]: 16.4 nM
- koff [3]: 0.00079 s⁻¹
- kon [3]: 49000 M⁻¹ s⁻¹
B8: Lep-(ss)-P85(1) reduced (ligand, mouse, UniProt P41160 22-167, looked up)
chain: B3 chain
modifications: Pluronic P85 chains on lysine amino groups through the DSP linker, partly cleaved by 6 mM L-glutathione; a linker remainder is left on cleaved sites
notes: Lep-(ss)-P85(1) dialysed against 6 mM L-glutathione in PBS with 20% ethanol; Some but not all P85 chains were cleaved; also called reduced form of Lep-(ss)-P85(1)

More lines, now with the values behind:

B1: Mouse leptin (ligand, UniProt P41160 22-167, looked up)
chain: B3 chain
notes: Also tested as a non-covalent 1:1 mixture with free Pluronic P85 ('Leptin + P85'); Those rows use this molecule and name the mixture under assay; The preparation held monomer and dimer on SDS-PAGE; also called native leptin; mu-leptin
- koff [1]: 0.000368 s⁻¹
- kon [1]: 1.09e+06 M⁻¹ s⁻¹
- Kd [2]: 0.1 nM
- koff [3]: 0.000208 s⁻¹
- kon [3]: 2.09e+06 M⁻¹ s⁻¹
- Ka [4]: 1.1e+09 M⁻¹
- Kd [4]: 0.96 nM
- koff [4]: 0.00051 s⁻¹
- kon [4]: 530000 M⁻¹ s⁻¹
- fold decrease of binding affinity against native leptin alone [5]: ~3 fold
- Kd [6]: 0.337 nM

B2: Lep-(ss)-P85(2.1) (ligand, mouse, UniProt P41160 22-167, looked up)
chain: B3 chain
modifications: Pluronic P85 chains on lysine amino groups through the DSP (disulfide) linker; lower degree of modification; positions not determined
notes: Mixture that includes unmodified leptin
- Kd [3]: 3.2 nM
- koff [3]: 0.000355 s⁻¹
- kon [3]: 113000 M⁻¹ s⁻¹

B5: Lep-(ss)-P85(2.3), 33 min (ligand, mouse, UniProt P41160 22-167, looked up)
chain: B3 chain
modifications: one Pluronic P85 chain on a lysine amino group through the DSP (disulfide) linker; position not determined
notes: HIC fraction collected at 33 min, said to contain leptin modified with one P85 chain; also called Lep-(ss)-P85(2.3) purified by HIC (33 minutes); HIC-purified Lep-(ss)-P85(2.3)
- Kd [3]: 1.21 nM
- koff [3]: 0.000292 s⁻¹
- kon [3]: 311000 M⁻¹ s⁻¹

B7: Lep-(ss)-P85(2.1) reduced (ligand, mouse, UniProt P41160 22-167, looked up)
chain: B3 chain
modifications: Pluronic P85 chains on lysine amino groups through the DSP linker, partly cleaved by 6 mM L-glutathione
notes: Lep-(ss)-P85(2.1) dialysed against 6 mM L-glutathione in PBS with 20% ethanol; also called reduced form of Lep-(ss)-P85(2.1)
- Kd [3]: 2.09 nM
- koff [3]: 0.000407 s⁻¹
- kon [3]: 195000 M⁻¹ s⁻¹
